According to patent US20080206140A1:

Target: Ab126 antibody
Test: direct competition ELISA: 0.1 µg recombinant PCNA on plate, peptide UMPB6 (0.024-2400 ng/well) mixed with Ab126, anti-rabbit IgG-AP, OD 405 nm

- IC50: 0.1 µg/mL
Binder: LGIPEQEY [antigenic peptide UMPB6 (equivalent to PCNA amino acids 126-133)]
